Common to all, as to assay: Ki table, method not stated
One experiment has as its target T1, MCL-1 (UniProt Q07820 172-327, limits assumed).
T1 construct: also called Myeloid cell leukemia 1

The target in another experiment is BCL-XL (UniProt Q07817 1-209).
The next experiment concerns the target BCL-2 (UniProt P10415 1-217, limits assumed).

Positions of bridges follow the written chain, without caps; N, C: chain ends. Non-standard residues stand in square brackets, D forms with d. R8 = C=CCCCCCC[C@@](C)(N)C(=O)O; S5 = C=CCCC[C@](C)(N)C(=O)O

T1 sequence (Q07820 172-327 limits assumed): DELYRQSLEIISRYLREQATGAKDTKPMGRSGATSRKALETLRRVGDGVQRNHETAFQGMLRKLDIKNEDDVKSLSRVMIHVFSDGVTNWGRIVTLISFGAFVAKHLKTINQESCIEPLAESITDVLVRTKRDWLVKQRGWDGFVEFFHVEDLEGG
Sequence of BCL-2 (P10415 1-217 limits assumed): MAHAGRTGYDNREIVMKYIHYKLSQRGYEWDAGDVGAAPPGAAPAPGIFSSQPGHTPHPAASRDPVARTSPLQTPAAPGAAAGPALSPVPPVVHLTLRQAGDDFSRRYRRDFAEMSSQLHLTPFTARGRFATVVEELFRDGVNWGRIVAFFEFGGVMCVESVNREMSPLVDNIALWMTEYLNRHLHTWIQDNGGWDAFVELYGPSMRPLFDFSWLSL
Sequence of BCL-XL (Q07817 1-209): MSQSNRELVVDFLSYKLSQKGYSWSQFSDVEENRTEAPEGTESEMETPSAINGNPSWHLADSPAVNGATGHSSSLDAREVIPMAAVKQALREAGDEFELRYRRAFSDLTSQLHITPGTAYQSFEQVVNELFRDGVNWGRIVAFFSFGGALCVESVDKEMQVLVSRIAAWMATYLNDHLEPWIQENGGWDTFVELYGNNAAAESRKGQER

B1: SEQ ID NO: 1671 (peptide)
peptide: Ac-IWFAQALR[R8]IGDAFN[S5]YYA-NH2
modifications: staple 9-16
SMILES: CC[C@H](C)[C@H](NC(C)=O)C(=O)N[C@@H](Cc1c[nH]c2ccccc12)C(=O)N[C@@H](Cc1ccccc1)C(=O)N[C@@H](C)C(=O)N[C@@H](CCC(N)=O)C(=O)N[C@@H](C)C(=O)N[C@@H](CC(C)C)C(=O)N[C@@H](CCCNC(=N)N)C(=O)N[C@]1(C)CCCCCCC=CCCC[C@@](C)(C(=O)N[C@@H](Cc2ccc(O)cc2)C(=O)N[C@@H](Cc2ccc(O)cc2)C(=O)N[C@@H](C)C(N)=O)NC(=O)[C@H](CC(N)=O)NC(=O)[C@H](Cc2ccccc2)NC(=O)[C@H](C)NC(=O)[C@H](CC(=O)O)NC(=O)CNC(=O)[C@H]([C@@H](C)CC)NC1=O
B1: the Ki in the experiment with MCL-1 is 22 nM; in the experiment with BCL-XL, 28 nM; with BCL-2, 179 nM.

B2: SEQ ID NO: 1676 (peptide)
peptide: Ac-IWIAQALR[R8]IGDQFA[S5]YYA-NH2
modifications: staple 9-16
SMILES: CC[C@H](C)[C@H](NC(C)=O)C(=O)N[C@@H](Cc1c[nH]c2ccccc12)C(=O)N[C@H](C(=O)N[C@@H](C)C(=O)N[C@@H](CCC(N)=O)C(=O)N[C@@H](C)C(=O)N[C@@H](CC(C)C)C(=O)N[C@@H](CCCNC(=N)N)C(=O)N[C@]1(C)CCCCCCC=CCCC[C@@](C)(C(=O)N[C@@H](Cc2ccc(O)cc2)C(=O)N[C@@H](Cc2ccc(O)cc2)C(=O)N[C@@H](C)C(N)=O)NC(=O)[C@H](C)NC(=O)[C@H](Cc2ccccc2)NC(=O)[C@H](CCC(N)=O)NC(=O)[C@H](CC(=O)O)NC(=O)CNC(=O)[C@H]([C@@H](C)CC)NC1=O)[C@@H](C)CC
Regarding B2, the Ki in the experiment with MCL-1 came to 22.8 nM; with BCL-XL it was 53.5 nM; with BCL-2, 84.9 nM.

B3: SEQ ID NO: 1672 (peptide)
peptide: Ac-IWFAQALR[R8]IGDQFN[S5]YYA-NH2
modifications: staple 9-16
SMILES: CC[C@H](C)[C@H](NC(C)=O)C(=O)N[C@@H](Cc1c[nH]c2ccccc12)C(=O)N[C@@H](Cc1ccccc1)C(=O)N[C@@H](C)C(=O)N[C@@H](CCC(N)=O)C(=O)N[C@@H](C)C(=O)N[C@@H](CC(C)C)C(=O)N[C@@H](CCCNC(=N)N)C(=O)N[C@]1(C)CCCCCCC=CCCC[C@@](C)(C(=O)N[C@@H](Cc2ccc(O)cc2)C(=O)N[C@@H](Cc2ccc(O)cc2)C(=O)N[C@@H](C)C(N)=O)NC(=O)[C@H](CC(N)=O)NC(=O)[C@H](Cc2ccccc2)NC(=O)[C@H](CCC(N)=O)NC(=O)[C@H](CC(=O)O)NC(=O)CNC(=O)[C@H]([C@@H](C)CC)NC1=O
For the molecule B3, the Ki with MCL-1 was 29.3 nM; with BCL-XL, 25.9 nM; with BCL-2, 205 nM.

B4: SEQ ID NO: 1674 (peptide)
peptide: Ac-IWIAQALR[R8]IGNAFN[S5]YYA-NH2
modifications: staple 9-16
SMILES: CC[C@H](C)[C@H](NC(C)=O)C(=O)N[C@@H](Cc1c[nH]c2ccccc12)C(=O)N[C@H](C(=O)N[C@@H](C)C(=O)N[C@@H](CCC(N)=O)C(=O)N[C@@H](C)C(=O)N[C@@H](CC(C)C)C(=O)N[C@@H](CCCNC(=N)N)C(=O)N[C@]1(C)CCCCCCC=CCCC[C@@](C)(C(=O)N[C@@H](Cc2ccc(O)cc2)C(=O)N[C@@H](Cc2ccc(O)cc2)C(=O)N[C@@H](C)C(N)=O)NC(=O)[C@H](CC(N)=O)NC(=O)[C@H](Cc2ccccc2)NC(=O)[C@H](C)NC(=O)[C@H](CC(N)=O)NC(=O)CNC(=O)[C@H]([C@@H](C)CC)NC1=O)[C@@H](C)CC
Consider B4, for which the results for the Ki with MCL-1, in the experiment with BCL-XL and with BCL-2 were 195 nM, 416 nM and 405 nM, respectively.

Source of the values: US20180273587A1 (AILERON THERAPEUTICS, published 2018).
